B1: His–ALFA–3C–ALDH1A1 (natural protein, human, UniProt P00352 1-501, looked up)
chain: MSSSGTPDLPVLLTDLKIQYTKIFINNEWHDSVSGKKFPVFNPATEEELCQVEEGDKEDVDKAVKAARQAFQIGSPWRTMDASERGRLLYKLADLIERDRLLLATMESMNGGKLYSNAYLNDLAGCIKTLRYCAGWADKIQGRTIPIDGNFFTYTRHEPIGVCGQIIPWNFPLVMLIWKIGPALSCGNTVVVKPAEQTPLTALHVASLIKEAGFPPGVVNIVPGYGPTAGAAISSHMDIDKVAFTGSTEVGKLIKEAAGKSNLKRVTLELGGKSPCIVLADADLDNAVEFAHHGVFYHQGQCCIAASRIFVEESIYDEFVRRSVERAKKYILGNPLTPGVTQGPQIDKEQYDKILDLIESGKKEGAKLECGGGPWGNKGYFVQPTVFSNVTDEMRIAKEEIFGPVQQIMKFKSLDDVIKRANNTFYGLSAGVFTKDIDKAITISSALQAGTVWVNCYGVVSAQCPFGGFKMSGNGRELGEYGFHEYTEVKTVTVKISQKNS
notes: retinal dehydrogenase 1 (ALDH1A1), cDNA amplified from HEK293 total cDNA; A 3C protease site stands between the tags and the protein; Heat-stressed at 50 °C for 1 h together with the chaperone; also called recombinant ALDH1A1; source: E. coli BL21(DE3) LOBSTR, purified (HisPur Cobalt Resin)
B2: α2M–mCherry–sfGFP–His (natural protein, human (cDNA from HepG2), UniProt P01023 24-1474, looked up)
chain: SVSGKPQYMVLVPSLLHTETTEKGCVLLSYLNETVTVSASLESVRGNRSLFTDLEAENDVLHCVAFAVPKSSSNEEVMFLTVQVKGPTQEFKKRTTVMVKNEDSLVFVQTDKSIYKPGQTVKFRVVSMDENFHPLNELIPLVYIQDPKGNRIAQWQSFQLEGGLKQFSFPLSSEPFQGSYKVVVQKKSGGRTEHPFTVEEFVLPKFEVQVTVPKIITILEEEMNVSVCGLYTYGKPVPGHVTVSICRKYSDASDCHGEDSQAFCEKFSGQLNSHGCFYQQVKTKVFQLKRKEYEMKLHTEAQIQEEGTVVELTGRQSSEITRTITKLSFVKVDSHFRQGIPFFGQVRLVDGKGVPIPNKVIFIRGNEANYYSNATTDEHGLVQFSINTTNVMGTSLTVRVNYKDRSPCYGYQWVSEEHEEAHHTAYLVFSPSKSFVHLEPMSHELPCGHTQTVQAHYILNGGTLLGLKKLSFYYLIMAKGGIVRTGTHGLLVKQEDMKGHFSISIPVKSDIAPVARLLIYAVLPTGDVIGDSAKYDVENCLANKVDLSFSPSQSLPASHAHLRVTAAPQSVCALRAVDQSVLLMKPDAELSASSVYNLLPEKDLTGFPGPLNDQDNEDCINRHNVYINGITYTPVSSTNEKDMYSFLEDMGLKAFTNSKIRKPKMCPQLQQYEMHGPEGLRVGFYESDVMGRGHARLVHVEEPHTETVRKYFPETWIWDLVVVNSAGVAEVGVTVPDTITEWKAGAFCLSEDAGLGISSTASLRAFQPFFVELTMPYSVIRGEAFTLKATVLNYLPKCIRVSVQLEASPAFLAVPVEKEQAPHCICANGRQTVSWAVTPKSLGNVNFTVSAEALESQELCGTEVPSVPEHGRKDTVIKPLLVEPEGLEKETTFNSLLCPSGGEVSEELSLKLPPNVVEESARASVSVLGDILGSAMQNTQNLLQMPYGCGEQNMVLFAPNIYVLDYLNETQQLTPEIKSKAIGYLNTGYQRQLNYKHYDGSYSTFGERYGRNQGNTWLTAFVLKTFAQARAYIFIDEAHITQALIWLSQRQKDNGCFRSSGSLLNNAIKGGVEDEVTLSAYITIALLEIPLTVTHPVVRNALFCLESAWKTAQEGDHGSHVYTKALLAYAFALAGNQDKRKEVLKSLNEEAVKKDNSVHWERPQKPKAPVGHFYEPQAPSAEVEMTSYVLLAYLTAQPAPTSEDLTSATNIVKWITKQQNAQGGFSSTQDTVVALHALSKYGAATFTRTGKAAQVTIQSSGTFSSKFQVDNNNRLLLQQVSLPELPGEYSMKVTGEGCVYLQTSLKYNILPEKEEFPFALGVQTLPQTCDEPKAHTSFQISLSVSYTGSRSASNMAIVDVKMVSGFIPLKPTVKMLERSNHVSRTEVSSNHVLIYLDKVSNQTLSLFFTVLQDVPVRDLKPAIVKVYDYYETDEFAIAEYNAPCSKDLGNA
notes: alpha 2-macroglobulin (α2M), cDNA amplified from HepG2 total cDNA; Tetramer with an intact thiol ester by native-PAGE and heat fragmentation; also called α2M–RG; α2M–RFP–GFP–His; source: purified from conditioned medium (Ni–NTA); not shown: mCherry, C-terminal, kept; sfGFP, C-terminal, kept
B3: His–ALFA–3C–ESD (natural protein, human, UniProt P10768 1-282, looked up)
chain: MALKQISSNKCFGGLQKVFEHDSVELNCKMKFAVYLPPKAETGKCPALYWLSGLTCTEQNFISKSGYHQSASEHGLVVIAPDTSPRGCNIKGEDESWDFGTGAGFYVDATEDPWKTNYRMYSYVTEELPQLINANFPVDPQRMSIFGHSMGGHGALICALKNPGKYKSVSAFAPICNPVLCPWGKKAFSGYLGTDQSKWKAYDATHLVKSYPGSQLDILIDQGKDDQFLLDGQLLPDNFIAACTEKKIPVVFRLQEGYDHSYYFIATFITDHIRHHAKYLNA
notes: S-formylglutathione hydrolase (ESD), cDNA amplified from HEK293 total cDNA; A 3C protease site stands between the tags and the protein; Heat-stressed at 50 °C for 1 h together with the chaperone; also called recombinant ESD; source: E. coli BL21(DE3) LOBSTR, purified (HisPur Cobalt Resin)

The target in the data set “α2M–mCherry–sfGFP–His” is B2. Briefly: co-IP; purified α2M–RG (0.1 μM) mixed with purified substrate, pre-incubated at 50 °C (heat stress) or 4 °C for 1 h; anti-GFP (GFP-nanobody) sepharose 2 h at 4 °C, washed four times with PBS. The conditions noted are these: both partners purified.
Data set [1] deals with the molecule itself. Kind of data set: native gel or EMSA; Native-PAGE of purified α2M–RG on NuPAGE 3 to 8% Tris–acetate gels, Tris–glycine running buffer pH 8.3, with or without methylamine; migrated to ~920 kDa. A general note: Mobility shift assays separate free from complexed probe on a gel.

As to B1, the binding result with α2M–mCherry–sfGFP–His is recorded as “binds”.
Turning to B2, the “stoichiometry N” value in data set [1] is 4.
Regarding B3, in the data set with α2M–mCherry–sfGFP–His, the binding result is “binds”.

Usually stoichiometry N stands for the number of molecules, sites or subunits per partner or assembly.

The record behind these values is paper PMC10050189, “Alpha 2-macroglobulin acts as a clearance factor in the lysosomal degradation of extracellular misfolded proteins” (Scientific Reports, 2023).
